Assay results from patent US20080241172A1 (CENTRE NATIONAL DE LA RECHERCHE SCIENTIFIQUE, published 2008).
Changes are numbered by the printed parent chain. Numbers in names are those of the source.

B1: Torpedo AChET mutant S19C (containing two cysteines at positions 19 and 37) (enzyme)
chain: DDDSELLVNTKSGKVMRTRIPVLSSHISAFLGIPFAEPPVGNMRFRRPEPKKPWSGVWNASTYPNNCQQYVDEQFPGFPGSEMWNPNREMSEDCLYLNIWVPSPRPKSATVMLWIYGGGFYSGSSTLDVYNGKYLAYTEEVVLVSLSYRVGAFGFLALHGSQEAPGNMGLLDQRMALQWVHDNIQFFGGDPKTVTLFGESAGRASVGMHILSPGSRDLFRRAILQSGSPNCPWASVSVAEGRRRAVELRRNLNCNLNSDEDLIQCLREKKPQELIDVEWNVLPFDSIFRFSFVPVIDGEFFPTSLESMLNAGNFKKTQILLGVNKDEGSFFLLYGAPGFSKDSESKISREDFMSGVKLSVPHANDLGLDAVTLQYTDWMDDNNGIKNRDGLDDIVGDHNVICPLMHFVNKYTKFGNGTYLYFFNHRASNLVWPEWMGVIHGYEIEFVFGLPLVKELNYTAEEEALSRRIMHYWATFAKTGNPNEPHSQESKWPLFTTKEQKFIDLNTEPIKVHQRLRVQMCVFWNQFLPKLLNATETIDEAERQWKTEFHRWSCYMMHWKNQFDQYSRHENCAEL
notes: It may include a signal peptide; also called mutated torpedo AChE
B2: Torpedo AChET mutant with T12 of the t peptide replaced by a cysteine, with mutation of C37 (C37S) (enzyme)
chain: B1 chain with T547C, C554S, C572S
notes: also called T12 with C37S
B3: Torpedo AChET mutant with M21 of the t peptide replaced by a cysteine, with mutation of C37 (C37S) (enzyme)
chain: B1 chain with C554S, M556C, C572S
notes: also called M21 with C37S
B4: Torpedo AChET mutant with H34 of the t peptide replaced by a cysteine, with mutation of C37 (C37S) (enzyme)
chain: B1 chain with C554S, H569C, C572S
notes: also called H34 with C37S
B5: Torpedo AChET mutant S19C/C37S (enzyme)
chain: B1 chain with C572S
notes: also called S19 with C37S
B6: Torpedo AChET mutant with H34 of the t peptide replaced by a cysteine (enzyme)
chain: B1 chain with C554S, H569C
B7: Torpedo AChET mutant with M21 of the t peptide replaced by a cysteine (enzyme)
chain: B1 chain with C554S, M556C
B8: Torpedo AChET mutant with A6 of the t peptide replaced by a cysteine, with mutation of C37 (C37S) (enzyme)
chain: B1 chain with A541C, C554S, C572S
notes: also called A6 with C37S
B9: Torpedo AChET mutant with residue 3 of the t peptide replaced by a cysteine (enzyme)
chain: B1 chain with I538C, C554S
notes: also called 13 (printed; read as I3)
B10: Torpedo AChET mutant with M22 of the t peptide replaced by a cysteine, with mutation of C37 (C37S) (enzyme)
chain: B1 chain with C554S, M557C, C572S
notes: also called M22 with C37S
B11: Torpedo AChET mutant with residue 3 of the t peptide replaced by a cysteine, with mutation of C37 (C37S) (enzyme)
chain: B1 chain with I538C, C554S, C572S
notes: also called 13 (printed; read as I3) with C37S
B12: Torpedo AChET mutant with M22 of the t peptide replaced by a cysteine (enzyme)
chain: B1 chain with C554S, M557C
B13: Torpedo AChET mutant with A6 of the t peptide replaced by a cysteine (enzyme)
chain: B1 chain with A541C, C554S
B14: Torpedo AChET mutant T12C (enzyme)
chain: B1 chain with T547C, C554S
B15: wild type Torpedo AChET (enzyme)
chain: B1 chain with C554S
notes: The wild type is built by undoing that change; Expressed in transfected COS cells; cell extracts and medium were analysed; also called wild type AChET subunits
B16: Torpedo AChET mutant C37S (enzyme)
chain: B1 chain with C554S, C572S

Target: the molecule itself
Experiment: homodimers from transfected COS cells; sedimentation in sucrose gradients
Method: (§1) COS cells were transfected by the DEAE-dextran method, as previously described (Bon et al., 1997), using 4 μg of DNA encoding the AChE catalytic subunit and 4 μg of DNA encoding QN or PRAD-deleted QN, per 100 mm dish. Because Torpedo AChE folds into its active conformation at 27° C., but not at 37° C., the cells were incubated for two days at 37° C. after transfection, then transferred to 27° C. and maintained at this temperature for 3-4 days, in a medium containing 10% Nuserum (Inotech, Dottikon, Switzerland), which had been pretreated with 10⁻⁶ M soman to inactivate serum choline sterases.
(§2) Centrifugation was performed in 5-20% sucrose gradients (50 mM Tris-HCl, pH 7.5, 50 mM MgCl₂, either in the presence of 0.2% Brij-97 or in the presence of 0.2% Triton X-100) in a Beckman SW41 rotor, at 36,000 rpm, for 18 h at 6° C. The gradients contained Escherichia coli β-galactosidase (16 S) and alkaline phosphatase (6.1 S) as internal sedimentation standards (Bon et al., 1997). Amphiphilic molecules generally sediment faster in the presence of Triton X100 than of Brij-97, providing an indication on their amphiphilic character.

Binding result, binds:
B1, B2, B3, B4, B5, B6, B7, B8, B9, B10, B11, B12, B13

Target: the molecule itself
Experiment: homo-oligomers from transfected COS cells; sedimentation in sucrose gradients
Method: as §1, §2

Binding result, binds:
B14, B15

Target: the molecule itself
Experiment: homo-oligomers from transfected COS cells; sedimentation in sucrose gradients (tetramers still formed, dimers not)
Method: as §1, §2

Binding result, binds:
B16
